Measured values as given in publication doi:10.1101/2021.07.08.451649 (bioRxiv, 2021).

Molecular target: Recombinant SARS-CoV-2 spike N-terminal domain (NTD) (SARS-CoV-2, ancestral (Wuhan-Hu-1), UniProt P0DTC2)
Experiment: BLI

B1: PVI.V6-14 monoclonal antibody (IgG) (antibody, V domains shown)
VH: QVQLQESGPGLVKPSETLSLTCTVSGGSISSSSYYWGWIRQPPGKGLEWIGSIYYSGSTYYNPSLKSRVTISVDTSKNQFSLKLSSVTAADTAVYYCARCRPEYYFGSGSYLDFDY
VL: DIQMTQSPSSVSASVGDRVTITCRASQGISSWLAWYQQKPGKAPKLLIYAASSLQSGVPSRFSGSGSGTDFTLTISSLQPEDFATYYCQQANSFPLTFGGGTKVEIK
  binding result: binds
